One may read the IC50 as the midpoint of a concentration-inhibition curve. The low end stands for greater potency in that assay, the high end for weaker potency in that assay.

Positions count from the first letter of the chain named. Numbers in names are those of the source.

Results on two molecules are retold here after patent US20240052044A1 (VIB VZW, published 2024).

The assay addresses T1, human CCR8 (human, UniProt P51685 1-355).
T1 construct: On stably transfected HEK293 cells or CHO-K1 cells; also called hCCR8
Put plainly: competition flow cytometry on hCCR8 HEK293 cells; competitor FLAG3-tagged VHH-69. On the technique in general: Flow cytometry measures light scatter and fluorescence of single cells or particles in a stream.

T1 sequence (P51685 whole entry): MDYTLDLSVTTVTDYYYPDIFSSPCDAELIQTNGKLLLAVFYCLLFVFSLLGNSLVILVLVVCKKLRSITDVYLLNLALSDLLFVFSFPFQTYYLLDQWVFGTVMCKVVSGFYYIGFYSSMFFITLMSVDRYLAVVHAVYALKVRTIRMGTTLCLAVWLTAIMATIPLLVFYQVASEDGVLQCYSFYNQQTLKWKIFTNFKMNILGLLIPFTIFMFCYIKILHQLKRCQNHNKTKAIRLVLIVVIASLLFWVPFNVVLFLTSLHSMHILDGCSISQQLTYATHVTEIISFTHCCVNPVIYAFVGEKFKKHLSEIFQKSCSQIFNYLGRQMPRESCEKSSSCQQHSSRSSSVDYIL

B1: VHH-123 (VHH)
VHH: DVQLVESGGGLVQPGGSLRLSCTASGRTFTNYKSNYKMAWFRQAPGKARAFVGRTDWTGSSAIIANSVKGRFTISRDNAKNTVYLQMNSLRPEDTAVYYCAAGTTIGQYTYWGQGTLVTVSS
notes: also called VHH-69(E1D, N55S, D65G); not shown: C-terminal His6 tag (no FLAG3 tag)
B1 showed an IC50 of 0.71 nM.

B2: VHH-124 (VHH)
VHH: B1 VHH with S60K
notes: also called VHH-69(E1D, N55K, D65G); not shown: C-terminal His6 tag (no FLAG3 tag)
B2: the IC50 is 0.25 nM and the “fold more potent competition IC50 against the control VHH-69(E1D)” value stood at 2 fold.
